According to article PMC11189427 (Scientific Reports, 2024):
“And” between values parts separate entries of the source, which are not always exact repeats. Equal values may be shown once.

Target: the molecule itself
Test: cryo-EM structure

B1: Hendra henipavirus nucleoprotein (natural protein)
chain: MSDIFDEAASFRSYQSKLGRDGRASAATATLTTKIRIFVPATNSPELRWELTLFALDVIRSPSAAESMKIGAAFTLISMYSERPGALIRSLLNDPDIEAVIIDVGSMLNGIPVMERRGDKAQEEMEGLMRILKTARESSKGKTPFVDSRAYGLRITDMSTLVSAVITIEAQIWILIAKAVTAPDTAEESETRRWAKYVQQKRVNPFFALTQQWLTEMRNLLSQSLSVRKFMVEILMEVKKGGSAKGRAVEIISDIGNYVEETGMAGFFATIRFGLETRYPALALNEFQSDLNTIKGLMLLYREIGPRAPYMVLLEESIQTKFAPGGYPLLWSFAMGVATTIDRSMGALNINRGYLEPMYFRLGQKSARHHAGGIDQNMANKLGLNSDQVAELAAAVQETSVGRQDNNMQAREAKFAAGGVLVGGGEQDIDEEEEPIEHSGRQSVTFKREMSMSSLADSVPSSSVSTSGGTRLTNSLLNLRSRLAAKAIKESTAQSSSERNPPNNRPQADSGRKDDQEPKPAQNDLDFVRADV
notes: copies: 28
stoichiometry N: 14 protomers per ring and 28 protomers per double-ring assembly
